Measured values reported in paper PMC8671946.

Target: HER2/PD-L1 BsAb (humanized bispecific IgG1 subclass antibody targeting both HER2 and PD-L1)
Assay: BLI; Octet RED96; antibody (10 ug/ml) immobilised on Protein A biosensors; 6xHis-tagged antigens two-fold serially titrated from 100 nM; PBS with 0.02% Tween 20 and 0.1% BSA, room temperature

Kd: 6.36 nM
Substance: human epidermal growth factor receptor 2 (HER2), recombinant, 6xHis-tagged (from UniProt P04626 23-652)
